Assay results taken from paper PMC12188319.

Molecular target: FcγRIIIa (UniProt P08637)
Assay: SPR

Sequence of UniProt P08637 (P08637 17-254): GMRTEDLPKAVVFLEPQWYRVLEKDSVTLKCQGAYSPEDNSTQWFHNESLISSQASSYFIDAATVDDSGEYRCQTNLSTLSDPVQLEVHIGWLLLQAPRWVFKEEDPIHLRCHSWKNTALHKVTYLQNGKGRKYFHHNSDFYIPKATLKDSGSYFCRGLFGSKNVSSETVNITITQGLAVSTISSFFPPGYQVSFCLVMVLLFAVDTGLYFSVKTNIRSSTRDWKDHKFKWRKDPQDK

JSKN003 (bispecific antibody) gave a Kd of 150 nM.
